Like-named read-outs stand apart in the source and are kept apart here. Blank lines part the entries; values can stand above or below the binder they belong to.
Legend:
Assay in all cases: cell-based or functional assay
[1] = target: T1, human IL-22 receptor (human IL-22Ra and human IL-10Rb) on cells (human, UniProt Q8N6P7 16-574; Q08334 20-325)
T1 sequence (looked up) 1: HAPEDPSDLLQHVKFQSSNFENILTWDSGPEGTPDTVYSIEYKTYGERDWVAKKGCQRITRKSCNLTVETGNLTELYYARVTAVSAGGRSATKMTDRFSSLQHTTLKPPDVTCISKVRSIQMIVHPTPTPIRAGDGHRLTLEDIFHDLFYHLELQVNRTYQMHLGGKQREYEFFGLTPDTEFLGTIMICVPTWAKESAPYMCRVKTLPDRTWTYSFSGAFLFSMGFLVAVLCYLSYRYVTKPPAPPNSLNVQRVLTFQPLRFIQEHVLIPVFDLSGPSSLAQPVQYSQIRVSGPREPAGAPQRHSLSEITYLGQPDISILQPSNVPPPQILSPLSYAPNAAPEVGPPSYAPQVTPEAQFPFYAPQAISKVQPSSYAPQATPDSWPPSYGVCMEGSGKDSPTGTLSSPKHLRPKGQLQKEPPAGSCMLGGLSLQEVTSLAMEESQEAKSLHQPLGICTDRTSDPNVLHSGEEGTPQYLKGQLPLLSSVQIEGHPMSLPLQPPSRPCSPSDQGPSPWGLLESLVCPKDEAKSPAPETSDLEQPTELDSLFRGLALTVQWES
T1 sequence (looked up) 2: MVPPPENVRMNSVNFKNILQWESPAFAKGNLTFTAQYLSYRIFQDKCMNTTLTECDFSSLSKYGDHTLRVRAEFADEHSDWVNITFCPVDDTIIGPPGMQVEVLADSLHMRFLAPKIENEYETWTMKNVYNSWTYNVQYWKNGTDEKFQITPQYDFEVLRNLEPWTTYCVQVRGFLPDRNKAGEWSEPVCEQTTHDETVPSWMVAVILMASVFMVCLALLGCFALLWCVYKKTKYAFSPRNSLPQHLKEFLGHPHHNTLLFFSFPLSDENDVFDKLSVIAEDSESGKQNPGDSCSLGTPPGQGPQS

[2] = target: T1, human IL-22 receptor (human IL-22Ra and …); remark: listed apart in the source
[3] = target: T1, human IL-22 receptor (human IL-22Ra and …); remark: listed apart in the source
[4] = target: T1, human IL-22 receptor (human IL-22Ra and …); remark: listed apart in the source
[5] = target: T1, human IL-22 receptor (human IL-22Ra and …); remark: listed apart in the source
[6] = target: T1, human IL-22 receptor (human IL-22Ra and …); remark: listed apart in the source
[7] = target: T1, human IL-22 receptor (human IL-22Ra and …); remark: listed apart in the source
[8] = target: T1, human IL-22 receptor (human IL-22Ra and …); remark: listed apart in the source

EC50, BHK cell reporter gene assay (STAT3-induced luciferase) [1]: 0.19 nM
B1: Comparator 18 (ligand)
chain: GPGCPISSHCRLDKSNFQQPYITNRTFMLAKEASLADQNTDVRLIGEKLFHGVSMSERCYLMKQVLQFTLEEVLFPQSDRFQPYMQEVVPFLARLSNRLSTCHIEGDDLHIQRNVQKLKDTVKKLGESGEIKAIGELDLLFMSLRNACI

EC50, HepG2 cell assay for pSTAT3 (AlphaScreen SureFire STAT3 p-Tyr705) [2]: 12.1 nM
EC50, BHK cell reporter gene assay (STAT3-induced luciferase) [1]: 0.09 nM
B2: Comparator 17 (ligand)
chain: GPGCPISSHCRLDKSNFQQPYITNRTFMLAKEASLADNNTDVRLIGEKLFHGVSMSERCYLMKQVLNFTLEEVLFPQSDRFQPYMQEVVPFLARLSNRLSTCHIEGDDLHIQRNVQKLKDTVKKLGESGEIKAIGELDLLFMSLRNACI

fold reduced potency compared to hIL-22, HepG2 cell assay for pSTAT3 [3]: 2.5 fold
fold reduction in potency compared to hIL-22, BHK cell reporter gene assay [3]: 7 fold
In vitro EC50, BHK cell reporter gene assay (STAT3-induced luciferase) [4]: 0.48 nM
EC50, HepG2 cell assay for pSTAT3 (AlphaScreen SureFire STAT3 p-Tyr705) [2]: 10.1 nM
EC50, BHK cell reporter gene assay (STAT3-induced luciferase) [1]: 0.48 nM
B3: Comparator 4 (ligand)
chain: GPGCPISSHCRLDKSNFQQPYITNRTFMLAKEASLADNNTDVRLIGEKLFHGVSMSERCYLMKQVLNFTLEEVLFPQSDRFQPYMQEVVPFLARLSNRLSTCHIEGDDLHIQRNVQKLKDTVKKLGESGEIKAIGELDLLFMSLRNACI
modifications: C18 diacid attached through linker γGlu-OEG-OEG-C2DA-Ac to Cys 1C

fold reduction in potency compared to hIL-22, BHK cell reporter gene assay [3]: 4 fold
In vitro EC50, BHK cell reporter gene assay (STAT3-induced luciferase) [4]: 0.3 nM
EC50, BHK cell reporter gene assay (STAT3-induced luciferase) [1]: 0.3 nM
B4: Comparator 6 (ligand)
chain: GPGCPISSHCRLDKSNFQQPYITNRTFMLAKEASLADNNTDVRLIGEKLFHGVSMSERCYLMKQVLNFTLEEVLFPQSDRFQPYMQEVVPFLARLSNRLSTCHIEGDDLHIQRNVQKLKDTVKKLGESGEIKAIGELDLLFMSLRNACI
modifications: C16 diacid attached through linker γGlu-OEG-OEG-C2DA-Ac to Cys 1C

EC50, HepG2 cell assay for pSTAT3 (AlphaScreen SureFire STAT3 p-Tyr705) [2]: 14.9 nM
EC50, BHK cell reporter gene assay (STAT3-induced luciferase) [1]: 0.61 nM
B5: Comparator 9 (ligand)
chain: GPGCPISSHCRLDKSNFQQPYITNRTFMLAKEASLADQNTDVRLIGEKLFHGVSMSERCYLMKQVLQFTLEEVLFPQSDRFQPYMQEVVPFLARLSNRLSTCHIEGDDLHIQRNVQKLKDTVKKLGESGEIKAIGELDLLFMSLRNACI
modifications: C18 diacid attached through linker γGlu-OEG-OEG-C2DA-Ac to Cys 1C

EC50, BHK cell reporter gene assay (STAT3-induced luciferase) [1]: 0.37 nM
B6: Comparator 13 (ligand)
chain: GPGCPISSHCRLDKSNFQQPYITNRTFMLAKEASLADQNTDVRLIGEKLFHGVSMSERCYLMKQVLQFTLEEVLFPQSDRFQPYMQEVVPFLARLSNRLSTCHIEGDDLHIQRNVQKLKDTVKKLGESGEIKAIGELDLLFMSLRNACI
modifications: C16 diacid attached through linker γGlu-OEG-OEG-C2DA-Ac to Cys 1C

In vitro EC50, BHK cell reporter gene assay (STAT3-induced luciferase) [4]: 0.06 nM
EC50, BHK cell reporter gene assay (STAT3-induced luciferase) [5]: 0.06 nM
B7: Derivative 1 (ligand)
chain: GPGCPISSHCRLDKSNFQQPYITNRTFMLAKEASLADNNTDVRLIGEKLFHGVSMSERCYLMKQVLNFTLEEVLFPQSDRFQPYMQEVVPFLARLSNRLSTCHIEGDDLHIQRNVQKLKDTVKKLGESGEIKAIGELDLLFMSLRNACI
modifications: C16 monoacid attached through linker γGlu-OEG-OEG-εLys-αAc to Cys 1C (position 1 of hIL-22; position 4 in the sequence listing entry)

EC50, BHK cell reporter gene assay (STAT3-induced luciferase) [1]: 0.18 nM
B8: Comparator 7 (ligand)
chain: GPGSGSGSCGSGSGSAPISSHCRLDKSNFQQPYITNRTFMLAKEASLADNNTDVRLIGEKLFHGVSMSERCYLMKQVLNFTLEEVLFPQSDRFQPYMQEVVPFLARLSNRLSTCHIEGDDLHIQRNVQKLKDTVKKLGESGEIKAIGELDLLFMSLRNACI
modifications: C16 diacid attached through linker γGlu-OEG-OEG-C2DA-Ac to Cys -7C (in the N-terminal peptide)

EC50, HepG2 cell assay for pSTAT3 (AlphaScreen SureFire STAT3 p-Tyr705) [2]: 6.98 nM
B9: Comparator 5 (ligand)
chain: GPGSGSGSCGSGSGSAPISSHCRLDKSNFQQPYITNRTFMLAKEASLADNNTDVRLIGEKLFHGVSMSERCYLMKQVLNFTLEEVLFPQSDRFQPYMQEVVPFLARLSNRLSTCHIEGDDLHIQRNVQKLKDTVKKLGESGEIKAIGELDLLFMSLRNACI
modifications: C18 diacid attached through linker γGlu-OEG-OEG-C2DA-Ac to Cys -7C (in the N-terminal peptide)

EC50, HepG2 cell assay for pSTAT3 (AlphaScreen SureFire STAT3 p-Tyr705) [2]: 3.88 nM
EC50, BHK cell reporter gene assay (STAT3-induced luciferase) [6]: 0.07 nM
EC50, BHK cell reporter gene assay (STAT3-induced luciferase), second laboratory [7]: 0.027 nM
EC50, BHK cell reporter gene assay (STAT3-induced luciferase) [5]: 0.07 nM
EC50, BHK cell reporter gene assay (STAT3-induced luciferase), second laboratory [8]: 0.03 nM
EC50, BHK cell reporter gene assay (STAT3-induced luciferase) [1]: 0.07 nM
B10: native mature human IL-22 (hIL-22) (ligand)
chain: APISSHCRLDKSNFQQPYITNRTFMLAKEASLADNNTDVRLIGEKLFHGVSMSERCYLMKQVLNFTLEEVLFPQSDRFQPYMQEVVPFLARLSNRLSTCHIEGDDLHIQRNVQKLKDTVKKLGESGEIKAIGELDLLFMSLRNACI

EC50, BHK cell reporter gene assay (STAT3-induced luciferase), second laboratory [7]: 0.085 nM
Fold change EC50 compared to hIL-22, BHK cell reporter gene assay, second laboratory [7]: 3 fold
B11: Comparator 3 (ligand)
chain: APISSHCRLDKSNFQQPYITNRTFMLAKEASLADNNTDVRLIGEKLFHGVSMSERCYLMKQVLNFTLEEVLFPQSDRFQPYMQEVVPFLARLSNRLSTCHIEGDDCHIQRNVQKLKDTVKKLGESGEIKAIGELDLLFMSLRNACI
modifications: C18 diacid attached through linker γGlu-OEG-OEG-C2DA-Ac to Cys 106C

EC50, BHK cell reporter gene assay (STAT3-induced luciferase) [1]: 0.28 nM
B12: Comparator 12 (ligand)
chain: APISSHCRLDKSNFQQPYITNRTFMLAKEASLCDQNTDVRLIGEKLFHGVSMSERCYLMKQVLQFTLEEVLFPQSDRFQPYMQEVVPFLARLSNRLSTCHIEGDDLHIQRNVQKLKDTVKKLGESGEIKAIGELDLLFMSLRNACI
modifications: C18 diacid attached through linker γGlu-OEG-OEG-C2DA-Ac to Cys 33C

EC50, BHK cell reporter gene assay (STAT3-induced luciferase), second laboratory [7]: 0.31 nM
Fold change EC50 compared to hIL-22, BHK cell reporter gene assay, second laboratory [7]: 11 fold
B13: Comparator 19 (ligand)
chain: APISSHCRLDKSNFQQPYITNRTFMLAKEASLADNNTDVRLIGEKLFHGVSMSERCYLMKQVLNFTLEEVLFPQSDRFQPYMQEVVPFLARLSNCLSTCHIEGDDLHIQRNVQKLKDTVKKLGESGEIKAIGELDLLFMSLRNACI
modifications: C18 diacid attached through linker γGlu-OEG-OEG-C2DA-Ac to Cys 95C

In vitro EC50, BHK cell reporter gene assay (STAT3-induced luciferase) [4]: 0.06 nM
EC50, HepG2 cell assay for pSTAT3 (AlphaScreen SureFire STAT3 p-Tyr705) [2]: 4.73 nM
EC50, BHK cell reporter gene assay (STAT3-induced luciferase) [1]: 0.06 nM
B14: Comparator 14 (ligand)
chain: GPISSHCRLDKSNFQQPYITNRTFMLAKEASLADNNTDVRLIGEKLFHGVSMSERCYLMKQVLNFTLEEVLFPQSDRFQPYMQEVVPFLARLSNRLSTCHIEGDDLHIQRNVQKLKDTVKKLGESGEIKAIGELDLLFMSLRNACI

EC50, BHK cell reporter gene assay (STAT3-induced luciferase) [6]: 0.36 nM
Fold change EC50 compared to hIL-22, BHK cell reporter gene assay [6]: 5 fold
B15: Comparator 2 (ligand)
chain: APISSHCRLDKSNFQQPYITNRTFMLAKEASLADQNTDVRLIGEKLFHGVSMSERCYLMKQVLQFTLEEVLFPQSDRFQPYMQEVVPFLARLSNCLSTCHIEGDDLHIQRNVQKLKDTVKKLGESGEIKAIGELDLLFMSLRNACI
modifications: C18 diacid attached through linker γGlu-OEG-OEG-C2DA-Ac to Cys 95C

EC50, BHK cell reporter gene assay (STAT3-induced luciferase) [6]: 0.23 nM
Fold change EC50 compared to hIL-22, BHK cell reporter gene assay [6]: 3 fold
B16: Comparator 1 (ligand)
chain: APISSHCRLDKSNFQQPYITNRTFMLAKEASLADQNTDVRLIGEKLFHGVSMSERCYLMKQVLQFTLEEVLFPQSDRFQPYMQEVVPFLARLSNRLSTCHIEGDDCHIQRNVQKLKDTVKKLGESGEIKAIGELDLLFMSLRNACI
modifications: C18 diacid attached through linker γGlu-OEG-OEG-C2DA-Ac to Cys 106C

EC50, BHK cell reporter gene assay (STAT3-induced luciferase), second laboratory [8]: 0.03 nM
B17: Derivative 2 (ligand)
chain: CPISSHCRLDKSNFQQPYITNRTFMLAKEASLADNNTDVRLIGEKLFHGVSMSERCYLMKQVLNFTLEEVLFPQSDRFQPYMQEVVPFLARLSNRLSTCHIEGDDLHIQRNVQKLKDTVKKLGESGEIKAIGELDLLFMSLRNACI
modifications: C16 monoacid attached through linker γGlu-OEG-OEG-εLys-αAc to Cys 1C

EC50, BHK cell reporter gene assay (STAT3-induced luciferase) [1]: 1.24 nM
B18: Comparator 11 (ligand)
chain: GAPISSCCRLDKSNFQQPYITNRTFMLAKEASLADQNTDVRLIGEKLFHGVSMSERCYLMKQVLQFTLEEVLFPQSDRFQPYMQEVVPFLARLSNRLSTCHIEGDDLHIQRNVQKLKDTVKKLGESGEIKAIGELDLLFMSLRNACI
modifications: C18 diacid attached through linker γGlu-OEG-OEG-C2DA-Ac to Cys 6C

Source: US20240239855A1 (CYTOKI PHARMA, published 2024)
